Measurements reported in patent publication US20190247519.

How the values were obtained:
Experiment in all cases: cell_activity
[1] = tested on: ZF6xHunt-Kox-1 (artificial (human Zif268 scaffold)); details: mRNA repression up to 2.5-fold (60%); protein 2-fold; STHdh cells 20 days
[2] = tested on: ZF11xHunt-Kox-1 (ZF-Kox-1) (artificial (human Zif268 scaffold))
[3] = tested on: mZF11-ZF87 (mZF-ZF87, mZF-KRAB) (artificial (mouse Zif268 scaffold)); details: R6/1 mice, 2 weeks after AAV injection; mZF-ZF87 design given as SEQ 50 (p342), legend of FIG. 13 cites SEQ 49
Chain of mZF11-ZF87 (mZF-ZF87, mZF-KRAB) (artificial (mouse Zif268 scaffold)) (chain, as listed by the source): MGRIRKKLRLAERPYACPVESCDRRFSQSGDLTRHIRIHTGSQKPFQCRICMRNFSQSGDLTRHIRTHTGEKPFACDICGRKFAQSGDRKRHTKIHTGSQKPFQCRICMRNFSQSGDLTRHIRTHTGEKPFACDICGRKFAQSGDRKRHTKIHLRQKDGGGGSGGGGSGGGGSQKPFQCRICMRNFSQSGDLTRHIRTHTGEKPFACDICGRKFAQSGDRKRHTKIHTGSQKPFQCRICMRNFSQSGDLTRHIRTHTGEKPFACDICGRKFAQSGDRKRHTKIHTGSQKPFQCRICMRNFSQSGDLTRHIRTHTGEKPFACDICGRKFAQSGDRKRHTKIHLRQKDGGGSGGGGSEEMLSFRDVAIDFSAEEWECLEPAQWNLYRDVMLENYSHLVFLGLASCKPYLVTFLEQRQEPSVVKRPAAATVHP

Chain of ZF11xHunt-Kox-1 (ZF-Kox-1) (artificial (human Zif268 scaffold)) (chain, as listed by the source): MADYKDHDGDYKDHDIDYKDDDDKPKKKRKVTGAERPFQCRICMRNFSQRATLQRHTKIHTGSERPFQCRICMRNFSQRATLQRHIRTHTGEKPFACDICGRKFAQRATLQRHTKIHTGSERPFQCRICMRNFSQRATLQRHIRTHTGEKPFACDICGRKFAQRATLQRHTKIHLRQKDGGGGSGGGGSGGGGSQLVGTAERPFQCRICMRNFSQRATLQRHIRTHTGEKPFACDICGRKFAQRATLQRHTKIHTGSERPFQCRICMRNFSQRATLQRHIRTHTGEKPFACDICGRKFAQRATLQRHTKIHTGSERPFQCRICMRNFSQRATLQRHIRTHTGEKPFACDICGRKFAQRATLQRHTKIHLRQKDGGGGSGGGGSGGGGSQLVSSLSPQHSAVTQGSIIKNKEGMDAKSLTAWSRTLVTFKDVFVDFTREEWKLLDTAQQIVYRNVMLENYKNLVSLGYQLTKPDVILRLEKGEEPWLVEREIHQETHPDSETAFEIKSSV
Chain of ZF6xHunt-Kox-1 (artificial (human Zif268 scaffold)) (chain, as listed by the source): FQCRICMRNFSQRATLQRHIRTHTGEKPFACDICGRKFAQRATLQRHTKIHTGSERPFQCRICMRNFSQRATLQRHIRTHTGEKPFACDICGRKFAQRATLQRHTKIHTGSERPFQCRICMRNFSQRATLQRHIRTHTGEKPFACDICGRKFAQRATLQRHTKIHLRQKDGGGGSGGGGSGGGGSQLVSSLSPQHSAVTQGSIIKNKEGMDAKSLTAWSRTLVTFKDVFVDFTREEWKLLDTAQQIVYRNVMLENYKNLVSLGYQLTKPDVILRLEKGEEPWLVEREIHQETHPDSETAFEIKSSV

chromosomal mutant Htt Q111 (STHdhQ111)
activity [1]: 2.5 fold
activity ([2]; almost 80% mRNA reduction, 95% protein reduction, STHdh cells 20 days): 80 % reduction

mutant HTT transgene in R6/2 or R6/1 mice
activity [3]: 30 % reduction
activity ([2]; R6/2 mice, 2 weeks after AAV injection, mRNA): 35 % reduction
